Test results as given in patent publication US20100081612A1 (GENERAL HOSPITAL, published 2010).
Where no end group is shown, it is not given here.

T1: wild-type human PTHR (human, UniProt Q03431 27-593)
T1 construct: whole, on cells; also called PTHR-WT; intact PTHR
T1 sequence (looked up): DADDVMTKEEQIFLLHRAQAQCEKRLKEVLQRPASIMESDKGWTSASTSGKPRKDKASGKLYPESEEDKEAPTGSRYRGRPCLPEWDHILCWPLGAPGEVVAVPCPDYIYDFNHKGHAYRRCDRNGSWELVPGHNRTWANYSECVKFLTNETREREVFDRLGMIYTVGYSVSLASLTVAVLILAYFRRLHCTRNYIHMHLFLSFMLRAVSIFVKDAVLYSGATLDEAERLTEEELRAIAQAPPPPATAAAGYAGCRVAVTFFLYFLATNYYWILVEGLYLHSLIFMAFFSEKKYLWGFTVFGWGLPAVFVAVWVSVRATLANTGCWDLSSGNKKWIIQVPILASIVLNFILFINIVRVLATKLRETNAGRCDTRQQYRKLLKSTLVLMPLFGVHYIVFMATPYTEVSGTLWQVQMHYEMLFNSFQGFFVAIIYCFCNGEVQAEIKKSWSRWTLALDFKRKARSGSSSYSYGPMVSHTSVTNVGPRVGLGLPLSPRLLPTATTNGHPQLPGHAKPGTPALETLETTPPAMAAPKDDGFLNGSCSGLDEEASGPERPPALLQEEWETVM

T2: rat PTHR endogenously expressed in ROS 17/2.8 cells (rat, UniProt P25961 27-591)
T2 sequence (looked up): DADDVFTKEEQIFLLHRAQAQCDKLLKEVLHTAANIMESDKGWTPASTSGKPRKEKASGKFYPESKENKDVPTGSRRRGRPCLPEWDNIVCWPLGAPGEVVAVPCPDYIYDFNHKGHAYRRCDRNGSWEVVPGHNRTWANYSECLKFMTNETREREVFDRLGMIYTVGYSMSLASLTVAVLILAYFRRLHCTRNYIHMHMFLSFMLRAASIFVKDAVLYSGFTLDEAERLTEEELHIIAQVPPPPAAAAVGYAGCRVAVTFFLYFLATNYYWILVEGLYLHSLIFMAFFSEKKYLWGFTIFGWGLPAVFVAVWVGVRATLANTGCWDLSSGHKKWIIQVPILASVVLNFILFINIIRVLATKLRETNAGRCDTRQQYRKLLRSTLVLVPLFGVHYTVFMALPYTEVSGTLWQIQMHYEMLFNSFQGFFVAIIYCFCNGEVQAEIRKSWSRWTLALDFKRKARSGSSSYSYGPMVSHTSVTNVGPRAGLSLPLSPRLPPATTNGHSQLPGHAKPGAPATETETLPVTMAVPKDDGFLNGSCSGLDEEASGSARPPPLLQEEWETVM

B1: [Ala^1,Arg^19]hPTH(1-31)NH2 (peptide)
peptide: AVSEIQLMHNLGKHLNSMRRVEWLRKKLQDV-NH2
notes: also called [Ala^1,Arg^19]PTH(1-31)NH2; [Ala^1,Arg^19]PTH(1-31)

Target: T1, wild-type human PTHR
Test: competition binding, HKRK-B7 cells, 125I-PTH(1-34) tracer
In short: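 Intact HKRK-B7 cells stably expressing hPTHR incubated 4 h at 15° C with ¹²⁵I-PTH(1-34) tracer and unlabeled peptide (3×10⁻⁹ to 1×10⁻⁵ M). Nonspecific binding defined with 1×10⁻⁶ M PTH(1-31)NH₂. Bound activity counted after lysis and expressed as % specific binding without competitor; values in nM, mean ± s.e.m.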

IC50 [nM]	Binder
38	B1
10400	AVSEIQLMHNLGKHLNSMRRVEWLRKKEQDV-NH2 [[Ala^1,Arg^19]hPTH(1-31)NH2 Leu^28→Glu]
6040	AVSEIQLMHNLGKHLNSMRRVEELRKKLQDV-NH2 [[Ala^1,Arg^19]hPTH(1-31)NH2 Trp^23→Glu]
> 10000	AVSEIQLMHNLGKHLNSMREVEWLRKKLQDV-NH2 [[Ala^1,Arg^19]hPTH(1-31)NH2 Arg^20→Glu]

Target: PTHR-delNt (human) (UniProt Q03431)
Test: competition binding, COS-7 membranes, 125I-[Aib1,3,M]PTH(1-15) tracer

IC50 [nM]	fold reduction in binding affinity vs [Ala^1,Arg^19]PTH(1-31)NH2 [fold]	fold reduction in binding affinity vs PTH(1-31)NH2 [fold]	Binder
397	–	–	B1
974	< 3	–	AVSEIQLMHNLGKHLNSMRRVEWLRKKEQDV-NH2 [[Ala^1,Arg^19]hPTH(1-31)NH2 Leu^28→Glu]
434	< 3	–	AVSEIQLMHNLGKHLNSMRRVEELRKKLQDV-NH2 [[Ala^1,Arg^19]hPTH(1-31)NH2 Trp^23→Glu]
19300	–	5	SVSEIQLMHNLGKHLNSMEAVEWLRKKLQDV-NH2 [PTH(1-31)NH2 Arg^20→Ala]
7360	–	2	SVSEIQLMHNLGKHLNSMERVEALRKKLQDV-NH2 [PTH(1-31)NH2 Trp^23→Ala]
776	< 3	–	AVSEIQLMHNLGKHLNSMREVEWLRKKLQDV-NH2 [[Ala^1,Arg^19]hPTH(1-31)NH2 Arg^20→Glu]
2940	–	–	SVSEIQLMHNLGKHLNSMARVEWLRKKLQDV-NH2 [PTH(1-31)NH2 Glu^19→Ala]
1930	–	–	SVSEIQLMHNLGKHLNSMERVEWLRKKLADV-NH2 [PTH(1-31)NH2 Gln^29→Ala]
4580	–	–	SVSEIQLMHNLGKHLNAMERVEWLRKKLQDV-NH2 [PTH(1-31)NH2 Ser^17→Ala]

Target: T1, wild-type human PTHR
Test: competition binding, HKRK-B7 cells, 125I-PTH(1-34) tracer
Remark: another data set of the same source

fold reduction in binding affinity vs PTH(1-31)NH2 [fold]	fold reduction in binding affinity vs [Ala^1,Arg^19]PTH(1-31)NH2 [fold]	fold enhancement in binding affinity vs PTH(1-31)NH2 [fold]	fold change in binding affinity vs PTH(1-31)NH2 [fold]	Binder
19	–	–	–	SVSEIQLMHNLGKHLNSMERVEALRKKLQDV-NH2 [PTH(1-31)NH2 Trp^23→Ala]
–	≥ 150	–	–	AVSEIQLMHNLGKHLNSMREVEWLRKKLQDV-NH2 [[Ala^1,Arg^19]hPTH(1-31)NH2 Arg^20→Glu]
–	–	≤ 2	–	SVSEIQLMHNLGKHLNSMARVEWLRKKLQDV-NH2 [PTH(1-31)NH2 Glu^19→Ala]
–	–	≤ 2	–	SVSEIQLMHNLGKHLNSMERVEWLRKKLADV-NH2 [PTH(1-31)NH2 Gln^29→Ala]
–	–	–	≤ 2	SVSEIQLMHNLGKHLNAMERVEWLRKKLQDV-NH2 [PTH(1-31)NH2 Ser^17→Ala]

Target: T1, wild-type human PTHR
Test: cell-based or functional assay

inositol phosphate (IP) production, peptide at 1×10^-6 M [fold]	Binder
4	SVSEIQLMHNLGKHLNSMEAVEWLRKKLQDV-NH2 [PTH(1-31)NH2 Arg^20→Ala]
4	SVSEIQLMHNLGKHLNSMERVEALRKKLQDV-NH2 [PTH(1-31)NH2 Trp^23→Ala]
4	SVSEIQLMHNLGKHLNSMARVEWLRKKLQDV-NH2 [PTH(1-31)NH2 Glu^19→Ala]
4	SVSEIQLMHNLGKHLNSMERVEWLRKKLADV-NH2 [PTH(1-31)NH2 Gln^29→Ala]
4	SVSEIQLMHNLGKHLNAMERVEWLRKKLQDV-NH2 [PTH(1-31)NH2 Ser^17→Ala]

Target: T2, rat PTHR endogenously expressed in ROS …
Test: cell-based or functional assay

cAMP EC50, ROS 17/2.8 cells [nM]	Binder
0.78	B1
11	AVSEIQLMHNLGKHLNSMRRVEWLRKKEQDV-NH2 [[Ala^1,Arg^19]hPTH(1-31)NH2 Leu^28→Glu]
4	AVSEIQLMHNLGKHLNSMRRVEELRKKLQDV-NH2 [[Ala^1,Arg^19]hPTH(1-31)NH2 Trp^23→Glu]
59	AVSEIQLMHNLGKHLNSMREVEWLRKKLQDV-NH2 [[Ala^1,Arg^19]hPTH(1-31)NH2 Arg^20→Glu]

Target: T2, rat PTHR endogenously expressed in ROS …
Test: competition binding, ROS 17/2.8 cells, 125I-PTH(1-34) tracer
Experimental: (§1) Receptor binding—Binding to the wild-type human PTHR in intact HKRK-B7 cells and ROS 17/2.8 cells was assessed using ¹²⁵I-PTH(1-34) as a tracer radioligand, as described (Shimizu, M., (2001) Endocrinology 142:3068-3074). In brief, the cells in 24-well plates (about 500,000 cells per well) were incubated in binding buffer containing radioligand (about 100,000 cpm per well) with or without unlabeled peptide ligand (3×10⁻⁹ to 1×10⁻⁵ M) for four hours at 15° C. The binding mixture was then removed by aspiration, the cells were rinsed three times with binding buffer, lysed in 1 M NaOH, and the entire lysate was counted for gamma-irradiation in a gamma counter. Binding to PTHR-delNt in COS-7 cell membranes was assessed in 96-well, vacuum filtration plates (Multiscreen-Durapore HV, […], Millipore Corp., Millford, Mass.) using ¹²⁵I-[Aib^{1,3},M]PTH(1-15)NH₂ as a tracer radioligand, as described (Dean, T., (2006) Mol Endocrinol 20:931-942). In brief, cell membranes (20 μg/well) were incubated in membrane binding buffer containing radioligand (30,000 cpm/well) with or without unlabeled peptide ligand (3×10⁻⁹ to 1×10⁻⁵ M) for 90 minutes at 21° C. The plates were then subject to rapid vacuum filtration, the filters were washed once with buffer, detached from the plate and counted for gamma-irradiation in a gamma counter. Non-specific binding was defined as the binding observed in the presence of 1×10⁻⁶ M PTH(1-31)NH₂ for HKRK-B7 and ROS 17/2.8 cells, and 1×10⁻⁶ M [Aib^{1,3},M]PTH(1-15)NH₂ for PTHR-delNt. Specifically bound radioactivity was calculated as a percentage of the radioactivity specifically bound in the absence of competing ligand.
Effects on cAMP and IP signaling—Selected analogs of [Ala¹,Arg¹⁹]hPTH(1-31)NH₂ with substitutions that markedly impaired binding to HKRK-B7 cells were assessed for their capacity to bind to the PTHR in ROS 17/2.8 cells and to stimulate cAMP-signaling responses in these cells. These bone-derived cells endogenously express the rat PTHR at a more physiological level than is found in HKRK-B7 cells (approximately 80,000 PTHRs per cell vs. 950,000 PTHRs per cell) and, have generally been found (data not shown) to yield closer correlations between PTH analog binding affinity and cAMP-signaling potency than do HKRK-B7 cells, presumably due to their lower PTHR expression level.

IC50 [nM]	Binder
1.6	B1
3100	AVSEIQLMHNLGKHLNSMRRVEWLRKKEQDV-NH2 [[Ala^1,Arg^19]hPTH(1-31)NH2 Leu^28→Glu]
220	AVSEIQLMHNLGKHLNSMRRVEELRKKLQDV-NH2 [[Ala^1,Arg^19]hPTH(1-31)NH2 Trp^23→Glu]
5800	AVSEIQLMHNLGKHLNSMREVEWLRKKLQDV-NH2 [[Ala^1,Arg^19]hPTH(1-31)NH2 Arg^20→Glu]

Target: T1, wild-type human PTHR
Test: competition binding, HKRK-B7 cells, 125I-PTH(1-34) tracer
Remark: another data set of the same source
Experimental: as §1
Alanine-Scan of the PTH(17-31) domain—Each residue in the (17-31) region of PTH(1-31)NH₂ was individually replaced with alanine and the effects of the substitutions on binding to the intact human PTHR stably expressed in HKRK-B7 cells was assessed. Competition binding studies were performed using whole cells and ¹²⁵I-PTH(1-34) (¹²⁵I-[Nle^{8,21},Tyr³⁴]ratPTH(1-34)NH₂) as a tracer radioligand.

IC50 [nM]	Binder
> 10000	SVSEIQLMHNLGKHLNSMEAVEWLRKKLQDV-NH2 [PTH(1-31)NH2 Arg^20→Ala]
1310	SVSEIQLMHNLGKHLNSMERVEALRKKLQDV-NH2 [PTH(1-31)NH2 Trp^23→Ala]
49	SVSEIQLMHNLGKHLNSMARVEWLRKKLQDV-NH2 [PTH(1-31)NH2 Glu^19→Ala]
44	SVSEIQLMHNLGKHLNSMERVEWLRKKLADV-NH2 [PTH(1-31)NH2 Gln^29→Ala]
57	SVSEIQLMHNLGKHLNAMERVEWLRKKLQDV-NH2 [PTH(1-31)NH2 Ser^17→Ala]
